T1: lysyl oxidase (LO) (Bos taurus, UniProt P33072)
T1 construct: per mature LO molecule (32 kD); from tissue
T1 sequence (P33072 170-418): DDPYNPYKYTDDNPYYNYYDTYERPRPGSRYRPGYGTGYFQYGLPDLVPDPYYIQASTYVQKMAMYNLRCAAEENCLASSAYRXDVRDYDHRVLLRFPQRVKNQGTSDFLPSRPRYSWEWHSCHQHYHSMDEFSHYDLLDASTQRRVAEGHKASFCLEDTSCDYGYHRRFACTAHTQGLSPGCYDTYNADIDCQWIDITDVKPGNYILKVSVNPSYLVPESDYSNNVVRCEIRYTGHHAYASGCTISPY


Target: T1, lysyl oxidase (LO)
Assay: LO-dependent H2O2 release, horseradish peroxidase-coupled fluorescence assay (substrate potential for LO)
Assay type: biochemical
Settings: for substrate of LO (in words): factor as sole substrate, LO-dependent H2O2 release in vitro; for Oxidized Lysines per Molecule 37° C. / Oxidized Lysines per Molecule 55° C.: oxidation by LO in vitro; for Oxidized Lysines per Molecule 37° C.: 37° C. (molar ratio of H2O2 released per molecule of substrate)
Procedure: The oxidation of a primary amine substrate by LO yields stoichiometric amounts of the corresponding aldehyde, hydrogen peroxide and ammonia, as shown: RCH2NH2+O2+H2O→RCHO+H2O2+NH3 (Kagan, 1986). To assess the substrate potential of FGF2, LO-dependent H2O2 release was monitored in assays using FGF2 as the sole substrate, using both the optimum temperature for LO activity of 55° C. and the physiological temperature of 37° C. (Trackman et al., 1981).
LO reaction with FGF2 as a substrate was assessed by a horseradish peroxidase-coupled fluorescence assay for H2O2 production. Reaction mixtures contained 0.25 mg of sodium homovanillate(HVA), 40 μg of HRP, and FGF2 at doses as indicated below in 0.05 M sodium borate buffer, pH 8.2, in a final volume of 2 ml. Assays were initiated by the addition of LO to reaction mixtures. H2O2 release was continuously monitored at excitation and emission wavelengths of 315 and 425 nm, respectively, at a constant temperature of 55° C. or 37° C., as specified, in the thermostatted cuvette chamber of an SLM Aminco Bowman Series 2 Luminescence Spectrometer. All activity data were corrected for background rates of H2O2 release determined in complete assay mixtures supplemented with 200 μM BAPN, an irreversible inhibitor of LO. In FIG. 4, solid curves represent the time course of H2O2 release at 55° C. in the reaction of 0.16 μM LO with 0.23 (a), 0.45 (b) and 0.9 (c) μM FGF2, respectively. Dotted curve (d) represents the time course of H2O2 release in the reaction of 0.16 μM LO with 0.9 μM FGF2 at 37° C. The same data were obtained from three separate experiments.
Using the fluorometric assay (Trackman et al., 1981) to monitor LO-dependent H2O2 release in vitro, the substrate potential of other growth factors was also assessed. Major members of the FGF family tested included FGF 1, 4, 5, 6, 7 and EGF (note: All factors are human recombinant forms purchased from R & D Systems, Inc., Minneapolis, Minn.).
A human recombinant disulfide-linked dimer of VEGF165 (MW: 42 kDa)(R & D Systems) as a sole substrate was tested by using the standard in vitro LO catalysis assays as described above for FIG. 4 (Trackman et al., 1981). Curves represent the time course of H2O2 release at 55° C. (a) or 37° C. (b) in the reaction of 0.10 μM LO with 0.45 μM VEGF165. All activity data were corrected for background rates of H2O2 release determined in complete assay mixtures supplemented with the same amounts of LO preincubated with 100 μM BAPN for 15 min at 37° C. The same data were obtained from three separate experiments.
The standard in vitro LO catalysis assays as described above for FIG. 4 (Trackman et al., 1981) using human recombinant PDGF-AB (R & D Systems) as a sole substrate was tested. […] In FIG. 19, curves represent the time course of H2O2 release at 55° C. (a) and 37° C. (b) in the reaction of 0.11 μM LO with 0.46 μM PDGF-AB, respectively. All activity data were corrected for background rates of H2O2 release determined in complete assay mixtures supplemented with the same amounts of LO preincubated with 100 μM BAPN for 15 minutes at 37° C. The same data were obtained from three separate experiments.
To analyze the substrate potential of Tat, the standard in vitro LO catalysis assays as described in FIG. 4 (Trackman et al., 1981) was performed at the optimum temperature of 55° C. and at the physiological temperature of 37° C. A recombinant Tat with 9 lysines in a total of 86 amino acids was used as a sole substrate. FIG. 12A represents a dose and temperature-dependent response. Curves represent the time course of H2O2 release at 55° C. (solid) or 37° C. (dotted) in the reaction of 0.10 μM LO with 0.22 (a and d), 0.43 (b and e) and 0.85 (c and f) μM Tat, respectively. All activity data were corrected for background rates of H2O2 release determined in complete assay mixtures supplemented with the same amounts of LO preincubated with 100 μM BAPN for 15 min at 37° C. […]

Row | Molecule | substrate of LO (in words) | Oxidized Lysines per Molecule 37° C. | Oxidized Lysines per Molecule 55° C.
1 | FGF6: human recombinant fibroblast growth factor 6 (R & D Systems) (protein, UniProt P10767 38-208, looked up) Fibroblast growth factor 6: SPAGTRANNTLLDSRGWGTLLSRSRAGLAGEIAGVNWESGYLVGIKRQRRLYCNVGIGFHLQVLPDGRISGTHEENPYSLLEISTVERGVVSLFGVRSALFVAMNSKGRLYATPSFQEECKFRETLLPNNYNAYESDLYQGTYIALSKYGRVKRGSKVSPIMTVTHFLPRI | substrates of LO | 3.1 | 7.2
2 | FGF4: human recombinant fibroblast growth factor 4 (R & D Systems) (protein, UniProt P08620 31-206, looked up) Fibroblast growth factor 4: APTAPNGTLEAELERRWESLVALSLARLPVAAQPKEAAVQSGAGDYLLGIKRLRRLYCNVGIGFHLQALPDGRIGGAHADTRDSLLELSPVERGVVSIFGVASRFFVAMSSKGKLYGSPFFTDECTFKEILLPNNYNAYESYKYPGMFIALSKNGKTKKGNRVSPTMKVTHFLPRL | substrates of LO | 3.6 | 14.5
3 | FGF5: human recombinant fibroblast growth factor 5 (R & D Systems) (protein, UniProt P12034 21-268, looked up) Fibroblast growth factor 5: HGEKRLAPKGQPGPAATDRNPRGSSSRQSSSSAMSSSSASSSPAASLGSQGSGLEQSSFQWSPSGRRTGSLYCRVGIGFHLQIYPDGKVNGSHEANMLSVLEIFAVSQGIVGIRGVFSNKFLAMSKKGKLHASAKFTDDCKFRERFQENSYNTYASAIHRTEKTGREWYVALNKRGKAKRGCSPRVKPQHISTHFLPRFKQSEQPELSFTVTVPEKKKPPSPIKPKIPLSAPRKNTNSVKYRLKFRFG | substrates of LO | 10.0 | 18.0

Reference: patent US20030211076A1, “Compositions and methods for treatment of proliferative disorders” (priority 2003, published 2003)
